Data on 37 sequences can be found in the supplement of paper PMC7877785.

± gives the uncertainty stated by the source.

A short description of this series: self-splicing fitness, log relative to wild type (ln ratio); higher = more splicing; Tetrahymena group I intron in knt gene, E. coli kanamycin selection, DiMSum; sequences stand for … in CUCUCU…GGAGGGAAAAGUUAUCAGGCAUGCACCUGGUAGCUAGUCUUUAAACCAAUAGAUUGCAUCGGUUUAAAAGGCAAGACCGUCAAAUUGCGGGAAAGGGGUCAACAGCCGUUCAGUACCAAGUCUCAGGGGAAACUUUGAGAUGGCCUUGCAAAGGGUAUGGUAAUAAGCUGACGGACAUGGUCCUAACCACGCAGCCAAGUCCUAAGUCAACAGAUCUUCUGUUGAUAUGGAUGCAGUUCACAGACUAAAUGUCGGUCGGGGAAGAUGUAUUCUUCUCAUAAGAUAUAGUCGGACCUCUCCUUAAUGGGAGCUAGCGGAUGAAGUGAUGCAACACUGGAGCCGCUGGGAACUAAUUUGUAUGCGAAAGUAUAUUGAUUAGUUUUGGAGUACUCGUGGUCG
In short, it runs like this:
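A randomised library covering all eight P1ex-region intron nucleotides was built with the intron in the knt kanamycin-resistance gene on pET-22b(+) and held in E. coli BL21(DE3). Cells were grown overnight at 37°C or 30°C on LB agar, with or without 25 μg/mL kanamycin, plus 100 μg/mL carbenicillin, 50 μM IPTG and 0.2% rhamnose, and pooled colonies were amplicon-sequenced on an Illumina HiSeq 2500. DiMSum fitness is the error-weighted combination of wild-type-normalised replicate fold changes, kanamycin versus none.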

For the sequence AUAGAGCAAUAUUACGGCGC, the “self-splicing fitness (ln)” value (30 °C) is -1.36 ± 0.096 and the “self-splicing fitness (ln)” value (37 °C) is -0.282 ± 0.14.
In the same order, the values of AAUAAGCAAUAUUACGAACA are -0.812 ± 0.15 and -0.462 ± 0.15.
In the same order, the values of UAUUAGCAAUAUUACGAACA are -0.315 ± 0.16 and 0.101 ± 0.14.
For AAGGAGCAAUAUUACGUAAC the same measures were -3.28 ± 0.25 and -2.96 ± 0.43.
In the case of UACCAGCAAUAUUACGAAGA, the “self-splicing fitness (ln)” value reads like this: (30 °C) -1.63 ± 0.097; (37 °C) -0.519 ± 0.11.
In the same order, the values of CAUAAGCAAUAUUACGGGUU are -3.37 ± 0.21 and -3.73 ± 0.24.
For GGAUAGCAAUAUUACGAGUC the same measures were -2.17 ± 0.26 and -1.06 ± 0.22.
For AGUGAGCAAUAUUACGAGUG the same measures were -3.75 ± 0.47 and -1.02 ± 0.24.
Consider CGAUAGCAAUAUUACGCACC, for which the “self-splicing fitness (ln)” value by setting is: (30 °C) -2.55 ± 0.15; (37 °C) -1.09 ± 0.16.
Take GAGGAGCAAUAUUACGGUGC: the “self-splicing fitness (ln)” value reads like this: (30 °C) -3.87 ± 0.28; (37 °C) -2.32 ± 0.15.
Take UGGAAGCAAUAUUACGGACU: the “self-splicing fitness (ln)” value reads like this: (30 °C) -0.345 ± 0.11; (37 °C) 0.284 ± 0.12.
GGGAAGCAAUAUUACGUGCA: the “self-splicing fitness (ln)” value is, setting by setting: (30 °C) -1.36 ± 0.1; (37 °C) 0.0267 ± 0.12.
Regarding UAUCAGCAAUAUUACGGGCU, the “self-splicing fitness (ln)” value runs as follows: (30 °C) -2.72 ± 0.21; (37 °C) -2.23 ± 0.3.
For ACGCAGCAAUAUUACGAGCU the same measures were -2.76 ± 0.12 and -1.18 ± 0.12.
For UCUUAGCAAUAUUACGAAGG the same measures were -2 ± 0.39 and 1.19 ± 0.23.
In the same order, the values of UAUUAGCAAUAUUACGAGUG are -0.139 ± 0.069 and 0.196 ± 0.087.
As to UGUUAGCAAUAUUACGACAA, the “self-splicing fitness (ln)” value is -0.407 ± 0.18 (30 °C) and 0.123 ± 0.16 (37 °C).
As to AGCAAGCAAUAUUACGUGAG, the “self-splicing fitness (ln)” value is -2.58 ± 0.087 (30 °C) and -1.44 ± 0.089 (37 °C).
For GUUCAGCAAUAUUACGGUUG, the “self-splicing fitness (ln)” value is, setting by setting: (30 °C) -1.9 ± 0.089; (37 °C) -0.591 ± 0.1.
For AAAGAGCAAUAUUACGUUCC the same measures were -3.94 ± 0.31 and -2.49 ± 0.29.
As for GACAAGCAAUAUUACGCCUG, the “self-splicing fitness (ln)” value reads like this: (30 °C) -1.3 ± 0.093; (37 °C) -0.0185 ± 0.1.
For the sequence UGGAAGCAAUAUUACGUGAU, the “self-splicing fitness (ln)” value runs as follows: (30 °C) -2.32 ± 0.2; (37 °C) -1.67 ± 0.22.
In the same order, the values of CGGCAGCAAUAUUACGUGGG are -3.46 ± 0.14 and -2.24 ± 0.11.
Regarding GGCAAGCAAUAUUACGGGGC, the “self-splicing fitness (ln)” value is -2.62 ± 0.42 (30 °C) and -1.5 ± 0.32 (37 °C).
In the case of CAUCAGCAAUAUUACGGAGG, the “self-splicing fitness (ln)” value was -1.24 ± 0.12 (30 °C) and -0.916 ± 0.14 (37 °C).
In the same order, the values of GGCAAGCAAUAUUACGGGCU are -2.53 ± 0.2 and -2.48 ± 0.2.
Regarding UAUCAGCAAUAUUACGUAGG, the “self-splicing fitness (ln)” value by setting is: (30 °C) -2.1 ± 0.097; (37 °C) -1.09 ± 0.088.
GCCUAGCAAUAUUACGGUAA: the “self-splicing fitness (ln)” value by setting is: (30 °C) -0.151 ± 0.079; (37 °C) -0.546 ± 0.075.
Consider UGGAAGCAAUAUUACGGCCA, for which the “self-splicing fitness (ln)” value (30 °C) is -0.874 ± 0.21 and the “self-splicing fitness (ln)” value (37 °C) was -0.244 ± 0.2.
For ACAGAGCAAUAUUACGUUCC the same measures were -2.89 ± 0.32 and -1.81 ± 0.34.
In the same order, the values of UAUCAGCAAUAUUACGAGGG are -2.76 ± 0.18 and -1.61 ± 0.19.
In the same order, the values of AAGGAGCAAUAUUACGCCGG are -3.01 ± 0.4 and -2.6 ± 0.36.
Take CCAAAGCAAUAUUACGGUCC: the “self-splicing fitness (ln)” value (30 °C) was -4.23 ± 0.46 and the “self-splicing fitness (ln)” value (37 °C) was -2.13 ± 0.3.
In the same order, the values of UACAAGCAAUAUUACGGGUC are -3.32 ± 0.16 and -2.78 ± 0.16.
For UAACAGCAAUAUUACGUGGU, the “self-splicing fitness (ln)” value runs as follows: (30 °C) -2.87 ± 0.12; (37 °C) -2.93 ± 0.2.
UAAUAGCAAUAUUACGUGGA: the “self-splicing fitness (ln)” value by setting is: (30 °C) -2.97 ± 0.23; (37 °C) -2.33 ± 0.24.
Consider AUUUAGCAAUAUUACGGACC, for which the “self-splicing fitness (ln)” value is, setting by setting: (30 °C) -1.57 ± 0.2; (37 °C) -1.29 ± 0.27.
